Reference: patent publication US20250353926A1

Target: PSMA expressed on target cells (PC3pip cells, high density; 22Rv1 cells, low density) (UniProt Q04609)
Test: cell-based or functional assay

PSMA expressed on target cells (PC3pip cells, high density; 22Rv1 cells, low density), sequence (Q04609 whole entry): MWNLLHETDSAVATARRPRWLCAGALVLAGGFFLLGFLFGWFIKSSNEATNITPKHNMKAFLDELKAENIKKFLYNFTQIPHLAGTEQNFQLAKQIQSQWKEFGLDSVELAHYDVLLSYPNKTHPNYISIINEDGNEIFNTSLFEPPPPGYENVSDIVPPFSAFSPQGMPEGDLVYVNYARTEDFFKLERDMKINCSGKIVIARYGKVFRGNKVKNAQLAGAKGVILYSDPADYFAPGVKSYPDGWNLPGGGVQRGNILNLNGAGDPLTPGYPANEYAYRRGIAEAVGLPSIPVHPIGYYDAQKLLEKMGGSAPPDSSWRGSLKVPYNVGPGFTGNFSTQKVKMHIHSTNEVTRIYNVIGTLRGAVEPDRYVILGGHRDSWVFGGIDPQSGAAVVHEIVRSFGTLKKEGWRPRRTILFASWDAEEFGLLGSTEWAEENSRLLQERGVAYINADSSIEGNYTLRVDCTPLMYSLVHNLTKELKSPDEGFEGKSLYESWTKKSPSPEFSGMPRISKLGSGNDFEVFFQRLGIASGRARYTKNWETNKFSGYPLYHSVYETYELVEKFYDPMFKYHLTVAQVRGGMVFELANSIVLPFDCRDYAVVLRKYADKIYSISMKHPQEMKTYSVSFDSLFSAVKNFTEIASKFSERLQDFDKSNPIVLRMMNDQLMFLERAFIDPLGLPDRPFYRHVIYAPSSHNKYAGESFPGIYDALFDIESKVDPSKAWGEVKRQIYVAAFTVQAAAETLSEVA

monoclonal anti-PSMA antibody, J591
EC50; ADCC luciferase reporter assay (Jurkat CD16a V158 reporter cells), PC3pip 24 h continuous: 0.16 nM
EC50; ADCC reporter assay, 22Rv1 4 h washout, 24 h endpoint: > 500 nM
EC50; ADCC reporter assay, PC3pip 4 h washout, 24 h endpoint: 0.044 nM
